We go through one molecule from patent US20090142346A1 (Takeda / Millennium, published 2009).

The target of experiment [1] is T1, nectin-2 Ig2 domain-deficient protein (human, UniProt Q92692 32-538).
T1 construct: also called delta-Ig2; Nectin-2ΔIg2
T1 sequence: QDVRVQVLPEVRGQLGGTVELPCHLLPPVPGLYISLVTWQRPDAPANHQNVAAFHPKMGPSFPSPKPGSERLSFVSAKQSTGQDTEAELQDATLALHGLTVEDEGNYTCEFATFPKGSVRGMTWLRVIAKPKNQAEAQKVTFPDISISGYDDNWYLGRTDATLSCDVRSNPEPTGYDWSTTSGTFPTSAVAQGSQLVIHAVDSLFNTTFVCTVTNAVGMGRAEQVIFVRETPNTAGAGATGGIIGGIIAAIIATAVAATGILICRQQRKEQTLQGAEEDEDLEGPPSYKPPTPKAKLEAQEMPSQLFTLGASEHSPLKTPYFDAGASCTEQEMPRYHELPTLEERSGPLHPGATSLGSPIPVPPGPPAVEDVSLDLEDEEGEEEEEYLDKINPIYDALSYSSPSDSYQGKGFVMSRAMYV
The experiment is described as follows: FCM.
Description: After 200 μL of FCM buffer was added to each well and washed once by centrifugal operation, 50 μL each of Alexa488-labeled secondary antibody diluted in FCM buffer to 10 μg/mL was added to and mixed therewith, and the mixture was then reacted on ice for an hour. The Alexa488-labeled secondary antibody used was Alexa Fluor488 goat anti-human IgG (H+L) for the human antibodies and Alexa Fluor488 goat anti-rabbit IgG (H+L) (Invitrogen) for the rabbit antibody. The cells in each well were washed twice with FCM buffer and then resuspended in 250 μL of FCM buffer. Using the flow cytometer MPL500 (BECKMAN COULTER), the fluorescence intensity of stained cells was measured to determine the ratio of the median value of fluorescence intensities of the respective antibodies in the primary antibody group to the median value of fluorescence intensities in the negative control group.

Experiment [2] has as its target T2, cynomolgus monkey nectin-2 protein (cynomolgus monkey, UniProt Q92692 32-538 (human entry)).
T2 construct: transient on CHO-K1; also called maNectin-2
T2 chain: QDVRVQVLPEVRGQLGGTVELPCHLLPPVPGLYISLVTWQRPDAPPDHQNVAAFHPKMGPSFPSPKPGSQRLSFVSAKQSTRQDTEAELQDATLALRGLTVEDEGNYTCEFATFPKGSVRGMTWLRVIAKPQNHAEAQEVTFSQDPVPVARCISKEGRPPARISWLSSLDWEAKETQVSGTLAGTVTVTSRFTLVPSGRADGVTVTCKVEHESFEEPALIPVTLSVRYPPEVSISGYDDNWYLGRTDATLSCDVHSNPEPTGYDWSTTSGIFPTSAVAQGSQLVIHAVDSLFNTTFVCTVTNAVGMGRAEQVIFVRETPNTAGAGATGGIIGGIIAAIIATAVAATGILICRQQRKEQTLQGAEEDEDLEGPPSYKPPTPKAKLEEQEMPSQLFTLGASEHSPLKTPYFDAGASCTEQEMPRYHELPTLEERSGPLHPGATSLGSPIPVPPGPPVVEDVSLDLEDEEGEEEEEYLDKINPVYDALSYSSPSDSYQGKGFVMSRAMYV
The experiment in a line: FCM, CHO-K1 transient.
Description: (§1) A ratio of the median value of fluorescence intensities of negative control plasmid pcDNA3.1(+)-transfected CHO-K1 cells to the median value of fluorescence intensities of each gene-transfected CHO-K1 cells was calculated for each antibody.
(§2) Then, after 200 μL of FCM buffer was added to each well and washed once by centrifugal operation, 50 μL each of Alexa488-labeled secondary antibody diluted in FCM buffer to 10 μg/mL was added thereto for suspension, and the mixture was then reacted on ice for an hour. As secondary antibodies, Alexa Fluor488 goat anti-human IgG (H+L) was used for the human antibodies and Alexa Fluor488 goat anti-rabbit IgG (H+L) (Invitrogen) was used for the rabbit antibody, respectively. Next, the cells were washed twice with FCM buffer and then resuspended in 250 μL of FCM buffer.

A further experiment concerns the target T3, human nectin-2δ protein (human, UniProt Q92692 32-538).
T3 construct: full length, stably on CHO-K1 (43-2) or transiently on CHO-K1 from pEE12.4-Nectin-2δ
T3 sequence: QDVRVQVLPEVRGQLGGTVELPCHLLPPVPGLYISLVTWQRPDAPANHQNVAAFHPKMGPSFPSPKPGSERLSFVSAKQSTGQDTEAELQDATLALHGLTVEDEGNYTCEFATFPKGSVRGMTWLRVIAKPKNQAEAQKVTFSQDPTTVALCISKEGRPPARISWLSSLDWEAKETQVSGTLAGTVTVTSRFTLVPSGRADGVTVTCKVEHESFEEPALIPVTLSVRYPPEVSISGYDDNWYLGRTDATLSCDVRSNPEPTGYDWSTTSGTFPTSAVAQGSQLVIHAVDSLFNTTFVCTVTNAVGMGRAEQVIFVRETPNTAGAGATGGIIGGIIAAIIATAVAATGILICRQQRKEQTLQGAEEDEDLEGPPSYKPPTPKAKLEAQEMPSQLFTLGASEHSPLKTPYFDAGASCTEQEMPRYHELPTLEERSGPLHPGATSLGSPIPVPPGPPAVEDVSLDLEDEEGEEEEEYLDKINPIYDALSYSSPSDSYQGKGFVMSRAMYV
The experiment is described as follows: FCM, CHO-K1 transient.

Another experiment has as its target T4, human nectin-2δ G113R (human, UniProt Q92692 32-538).
T4 construct: transient on CHO-K1
T4 sequence: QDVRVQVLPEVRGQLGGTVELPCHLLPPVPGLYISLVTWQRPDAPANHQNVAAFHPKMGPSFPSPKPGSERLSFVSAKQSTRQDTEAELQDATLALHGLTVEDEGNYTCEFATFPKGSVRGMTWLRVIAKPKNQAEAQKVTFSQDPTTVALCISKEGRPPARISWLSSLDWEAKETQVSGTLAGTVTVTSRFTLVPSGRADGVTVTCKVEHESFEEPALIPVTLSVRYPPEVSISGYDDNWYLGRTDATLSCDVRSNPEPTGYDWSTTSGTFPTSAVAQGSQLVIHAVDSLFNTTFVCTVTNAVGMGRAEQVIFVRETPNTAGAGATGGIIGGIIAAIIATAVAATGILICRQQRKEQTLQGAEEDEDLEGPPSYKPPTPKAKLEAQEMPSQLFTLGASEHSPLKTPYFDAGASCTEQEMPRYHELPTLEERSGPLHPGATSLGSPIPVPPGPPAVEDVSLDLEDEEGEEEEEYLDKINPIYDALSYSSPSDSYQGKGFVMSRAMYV
The experiment in a line: FCM, CHO-K1 transient.

In another experiment the target is T5, human nectin-2δ H128R (human, UniProt Q92692 32-538).
T5 construct: transient on CHO-K1
T5 sequence: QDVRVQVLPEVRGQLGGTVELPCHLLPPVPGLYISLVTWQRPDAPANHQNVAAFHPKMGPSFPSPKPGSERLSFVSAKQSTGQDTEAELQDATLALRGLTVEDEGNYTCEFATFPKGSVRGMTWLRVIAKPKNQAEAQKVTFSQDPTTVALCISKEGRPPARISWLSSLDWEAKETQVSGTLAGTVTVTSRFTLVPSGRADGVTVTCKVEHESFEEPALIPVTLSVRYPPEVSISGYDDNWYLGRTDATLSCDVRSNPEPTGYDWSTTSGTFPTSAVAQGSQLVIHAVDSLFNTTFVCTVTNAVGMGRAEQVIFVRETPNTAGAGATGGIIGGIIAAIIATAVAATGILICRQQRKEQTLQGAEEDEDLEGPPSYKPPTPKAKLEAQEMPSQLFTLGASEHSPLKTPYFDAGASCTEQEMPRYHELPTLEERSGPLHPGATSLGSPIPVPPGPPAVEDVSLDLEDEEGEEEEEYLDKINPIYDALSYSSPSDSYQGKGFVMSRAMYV
The experiment in a line: FCM, CHO-K1 transient.

The target in experiment [3] is T6, human nectin-2δ AN77-78PD (human, UniProt Q92692 32-538).
T6 construct: transient on CHO-K1
T6 sequence: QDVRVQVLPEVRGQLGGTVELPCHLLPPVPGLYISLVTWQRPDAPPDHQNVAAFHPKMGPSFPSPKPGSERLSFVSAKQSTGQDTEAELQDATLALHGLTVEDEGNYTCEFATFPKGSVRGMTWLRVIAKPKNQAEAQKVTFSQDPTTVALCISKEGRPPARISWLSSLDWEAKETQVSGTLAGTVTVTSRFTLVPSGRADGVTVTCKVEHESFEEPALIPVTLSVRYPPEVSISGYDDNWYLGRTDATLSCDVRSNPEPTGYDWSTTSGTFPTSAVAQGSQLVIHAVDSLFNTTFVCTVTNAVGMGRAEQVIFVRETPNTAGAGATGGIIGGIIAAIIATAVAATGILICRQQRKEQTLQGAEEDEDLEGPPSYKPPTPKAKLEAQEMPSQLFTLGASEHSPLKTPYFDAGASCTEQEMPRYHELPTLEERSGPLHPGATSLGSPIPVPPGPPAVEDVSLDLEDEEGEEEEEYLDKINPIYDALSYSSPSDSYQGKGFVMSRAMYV
The experiment is described as follows: FCM, CHO-K1 transient.
Description: (§3) After these cells were further washed twice with FCM buffer and then resuspended in 250 μL of FCM buffer, fluorescence intensity of the stained cells was measured by the flow cytometer MPL500 (BECKMAN COULTER). A ratio of the median value of fluorescence intensities of negative control plasmid pcDNA3.1(+)-transfected CHO-K1 cells to the median value of fluorescence intensities of each gene-transfected CHO-K1 cells was calculated for each antibody.
(§4) Then, after 200 μL of FCM buffer was added to each well and washed once by centrifugal operation, 50 μL of Alexa Fluor488 goat anti-human IgG (H+L) diluted in FCM buffer to 10 μg/mL was added thereto for suspension, and the mixture was then reacted on ice for an hour. Next, the cells were washed twice with FCM buffer and resuspended in 250 μL of FCM buffer.

Description for human nectin-2δ G113R: as §3, §4
Description for human nectin-2δ H128R: as §3, §4
Description for human nectin-2δ protein: as §1, §2

B1: Nec1-554-1 (antibody, human IgG1, V domains shown)
VH: EVQLVESGGGLVKPGGSLRLSCAASGFTFSSYNMNWVRQAPGKGLEWVSSISSSSSYIYYADSVKGRFTISRDNAKNSLYLQMNSLRAEDTAVYYCARDYYGSGTYYLFDYWGQGTLVTVSS
VL: EIVLTQSPDFQSVTPKEKVTITCRASQSIGSSLHWYQQKPDQSPKLLIKYASQSFSGVPSRFSGSGSGTDFTLTINSLEAEDAAAYYCHQSRSLPITFGQGTRLEIK
notes: human IgG1/k; also called Nec1-554-1 SP3
With B1, the binding result in experiment [1] is on record as “no binding (tested: ratio below 2 = no reactivity)”. Moreover, the median fluorescence ratio in experiment [2] is 14.8 ratio; with human nectin-2δ protein, 43 ratio; with human nectin-2δ G113R it was 38.7 ratio; with human nectin-2δ H128R, 51.5 ratio; in experiment [3] it was 44.2 ratio.
